One assay concerns the target T1, hiR2-FL-C508A-T7 (human, UniProt Q6PJF5 1-856).
T1 construct: reduced surface expression reported
T1 sequence: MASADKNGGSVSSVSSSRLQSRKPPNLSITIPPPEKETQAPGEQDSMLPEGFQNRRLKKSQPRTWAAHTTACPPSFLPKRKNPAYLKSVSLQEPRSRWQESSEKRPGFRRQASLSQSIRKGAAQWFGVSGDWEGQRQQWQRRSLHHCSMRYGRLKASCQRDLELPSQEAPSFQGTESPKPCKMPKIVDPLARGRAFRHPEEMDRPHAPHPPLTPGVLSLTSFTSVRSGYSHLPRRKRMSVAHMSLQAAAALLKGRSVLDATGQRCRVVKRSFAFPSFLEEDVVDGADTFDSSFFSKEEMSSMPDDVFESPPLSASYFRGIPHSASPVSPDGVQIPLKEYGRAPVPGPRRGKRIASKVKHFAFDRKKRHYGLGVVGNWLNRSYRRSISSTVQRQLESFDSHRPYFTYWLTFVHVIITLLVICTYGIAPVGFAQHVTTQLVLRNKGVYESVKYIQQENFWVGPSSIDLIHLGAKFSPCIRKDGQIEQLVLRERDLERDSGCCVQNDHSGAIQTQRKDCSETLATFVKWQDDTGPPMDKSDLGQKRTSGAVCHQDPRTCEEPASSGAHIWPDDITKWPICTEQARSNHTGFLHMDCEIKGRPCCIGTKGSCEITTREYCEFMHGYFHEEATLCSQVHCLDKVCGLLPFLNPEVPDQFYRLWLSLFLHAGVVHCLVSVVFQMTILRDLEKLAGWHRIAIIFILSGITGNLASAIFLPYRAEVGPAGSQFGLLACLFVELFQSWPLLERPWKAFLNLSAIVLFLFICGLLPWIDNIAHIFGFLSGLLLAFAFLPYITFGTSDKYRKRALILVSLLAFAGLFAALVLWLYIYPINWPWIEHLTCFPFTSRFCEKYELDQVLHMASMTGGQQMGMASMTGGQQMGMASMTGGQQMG
Put plainly: FACS on MEF-DKO cells expressing the variant, 3 µg/ml antibody. As for the experimental part: (§1) To pellet cells and remove supernatants, the plates were centrifuged at 1,500 rpm and 4° C. for 3 minutes. For primary staining, cells were resuspended in 100 μl per well of either FACS buffer alone (controls) or the purified antibodies 3, 5, 16, 22, 34, 42, 43, 44, 48, and 50 of the invention at 3 μg/ml in FACS buffer and incubated on ice for 1 hour. Afterwards, plates were centrifuged at 1,500 rpm and 4° C. for 3 minutes and washed twice with 200 μl per well of FACS buffer. For secondary staining, cells were spun down and resuspended in 100 μl per well of PE-conjugated goat anti-mouse IgG F(ab′)2 detection fragment (Dianova, Germany) diluted 1:100 in FACS buffer. Protected from light, the cell suspensions were incubated on ice for 1 hour. Plates were then centrifuged at 1,500 rpm and 4° C. for 3 minutes and washed three times with 200 μl per well of FACS buffer. Finally, cells were resuspended in 150 μl per well of FACS buffer and analyzed using a BD Accuri™ C6 Plus flow cytometer (Becton Dickinson, Germany).

Another assay has as its target T2, hiR2-FL-R543A-T7 (human, UniProt Q6PJF5 1-856).
T2 sequence: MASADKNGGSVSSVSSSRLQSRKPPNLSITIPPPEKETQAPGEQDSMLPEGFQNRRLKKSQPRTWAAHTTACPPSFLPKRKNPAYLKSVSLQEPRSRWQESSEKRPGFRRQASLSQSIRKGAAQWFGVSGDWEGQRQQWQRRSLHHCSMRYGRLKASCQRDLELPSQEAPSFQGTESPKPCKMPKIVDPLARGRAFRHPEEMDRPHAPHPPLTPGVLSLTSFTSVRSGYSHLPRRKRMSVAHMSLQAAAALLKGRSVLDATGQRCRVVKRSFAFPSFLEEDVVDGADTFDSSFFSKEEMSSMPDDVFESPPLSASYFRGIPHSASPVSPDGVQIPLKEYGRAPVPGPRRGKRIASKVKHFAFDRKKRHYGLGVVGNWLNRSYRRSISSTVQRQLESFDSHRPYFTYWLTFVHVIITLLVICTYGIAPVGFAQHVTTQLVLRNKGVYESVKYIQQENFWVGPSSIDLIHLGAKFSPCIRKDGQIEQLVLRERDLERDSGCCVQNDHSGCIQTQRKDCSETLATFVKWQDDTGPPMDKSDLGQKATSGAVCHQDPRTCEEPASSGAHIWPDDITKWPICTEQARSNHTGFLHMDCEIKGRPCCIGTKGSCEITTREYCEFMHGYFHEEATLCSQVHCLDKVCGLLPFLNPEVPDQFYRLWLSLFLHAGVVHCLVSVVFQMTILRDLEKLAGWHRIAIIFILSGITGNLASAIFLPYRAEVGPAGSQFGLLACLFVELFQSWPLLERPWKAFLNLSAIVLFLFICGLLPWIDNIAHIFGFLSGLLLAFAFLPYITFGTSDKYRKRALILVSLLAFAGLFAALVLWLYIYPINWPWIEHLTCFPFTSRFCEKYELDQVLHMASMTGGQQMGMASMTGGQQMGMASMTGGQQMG
The description is as above. As for the experimental part:
as §1

B1: antibody 5 (antibody, V domains shown)
VH: QVTLKESGPGILQPSQTLSLTCSFSGFSLSTFGMGVGWIRQPSGKGLEWLAHIWWDDEKYYNSALKSRLTISKATSKNQAFLKIANVDTADTATYYCARISNYGSNYWYFNVWGTGTTVTVSS
VL: QVVLTQSPALMSASPGEKVTMTCSAGSSVSCMYWYQQKPGSSPRVLIYDTSNLASGVPARFTGSGSGTSYSLTISRMEAEDAASYYCQQWNSYPLTFGAGTKLELK
notes: mouse IgG, kappa light chain; also called clone #5; purified antibody 5
Take B1: the entries for the “loss of binding vs wild type” value in the assay with hiR2-FL-C508A-T7 and with hiR2-FL-R543A-T7 were at least 30% and at least 60%, respectively.

B2: antibody 44 (antibody, V domains shown)
VH: QVTLKESGPGILQPSQTLSLTCSFSGFSLSTFGMGVGWIRQPSEKGLEWLAHIWWDDDKYYNPALKSRLTISKDTSKNQIFLKITNVDTAETATYYCSRIGNYGSNYWYFDVWGTGTTVTVSS
VL: QIVLTQSPAVMSASPGEKVTMTCTASSSVYYMYWYQQTPGSSPRLLIYDTSNLASGVPVRFSGSGSGTSYSLTISRMEAEDAATYYCQQWNTYPLTFGAGTKLELK
notes: mouse IgG, kappa light chain; also called clone #44; purified antibody 44
With B2, the “loss of binding vs wild type” value is at least 30% with hiR2-FL-C508A-T7 and at least 95% with hiR2-FL-R543A-T7.

B3: antibody 42 (antibody, V domains shown)
VH: QVTLKESGPGILQPSQTLSLTCSLSGFSLSTFGRGVGWIRQPSGKGLEWLAHIWWDDEKYYNPALKSRLTISKDTSKNQVFLRIANVDTADTATYYCARIQNYGSNYWYFDVWGTGTTVTVSS
VL: LIVLTQSPAIMSASPGEKVTMTCGATSRISYMFWYQQKPGSSPRVLIYDTSNLASGVPVRFSGSGSGTSYSLTISRVEAEDVATYYCQQWNSYPLTFGAGTKLELK
notes: mouse IgG, kappa light chain; also called clone #42; purified antibody 42
Take B3: the “loss of binding vs wild type” value with hiR2-FL-C508A-T7 is at least 30%; with hiR2-FL-R543A-T7, at least 60%.

B4: antibody 43 (antibody, V domains shown)
VH: QVALKESGPGILQPSQTLSLTCSFSGFSLSTFGMGVGWIRQSSGKGLEWLANIWWDDDKYYNPALKSRLTISKDASKNQAFLKIANVDTADTATYYCARIGNYGSNYWYFDVWGTGTTVTVSS
VL: QIVLTQSPAIMSASPGERVTMTCSANSRISYMYWYQQKPGSSPRLLIYDTSNLASGVPVRFSGSGSGTSYSLTISRMEAEDAATYNCQQWSSYPLTFGAGTKLELK
notes: mouse IgG, kappa light chain; also called clone #43; purified antibody 43
B4: the “loss of binding vs wild type” value with hiR2-FL-C508A-T7 was at least 30%; in the assay with hiR2-FL-R543A-T7, at least 95%.

B5: antibody 22 (antibody, V domains shown)
VH: QVTLKESGPGILQPSQTLSLTCSFSGFSLSTFGMGVGWIRQPSGKGLEWLAHIWWDDEKYYNSALKSRLTISKATSKNQVFLKIANVDTADTATYYCARISNYGSNYWYFNVWGTGTTVTVSS
VL: QVVLTQSPALMSASPGEKVTMTCSAGSSVSYMYWYQQKPGSSPRVLIYDTSNLASGVPARFTGSGSGTSYSLTISRMEAEDAATYYCQQWNSYPLTFGAGTKLELK
notes: mouse IgG, kappa light chain; also called clone #22; purified antibody 22
Consider B5, for which the “loss of binding vs wild type” value with hiR2-FL-C508A-T7 was at least 30%; in the assay with hiR2-FL-R543A-T7, at least 60%.

B6: antibody 3 (antibody, V domains shown)
VH: QVTLKESGPGILQPSQTLSLTCSFSGFSLTTFAMGIGWVRQPSGKGLEWLAHIWWDGEKYNNPVLKSRLTISKDTSKNQVFLRIANVDTPDTATYYCARISSIYYIIDNWGQGTSVTVSS
VL: DIVLTQSPATLSVTPGHSVSLSCRASQSISNNLHWYQKKSHESPRLLIKYVSQSISGIPSRFSGSGSGTDFTLSINSVETEDFGMYFCQQSYNWPLTFGAGTKLELK
notes: mouse IgG, kappa light chain; also called clone #3; purified antibody 3
For the molecule B6, the “loss of binding vs wild type” value with hiR2-FL-R543A-T7 is at least 30%.

B7: antibody 34 (antibody, V domains shown)
VH: QVTLKESGPGILQPSQTLSLTCSFSGFSLSTFSLGVGWIRQSSGKGLEWLAHIWWDDEKYYNPALKSRLTISKDTSKNQVFLKIANVDAADTATYYCARAYYSKSYYALDYWGQGTSVTVSS
VL: DIQMTQSPSSLSASLGERVSLTCRASQEISGYLSWLQQKPDGTIKRLIYAASTLDSGVPKRFSGSRSGSDYSLAISSLESEDFADYYCLQYANFPFTFGSGTKLEIK
notes: mouse IgG, kappa light chain; also called clone #34; purified antibody 34
With B7, the “loss of binding vs wild type” value with hiR2-FL-C508A-T7 is at least 30%; with hiR2-FL-R543A-T7 it was at least 95%.

The record behind these values is patent US20240287172A1 (SCIRHOM, published 2024).
